Data from US20220275333A1 (FATE THERAPEUTICS, published 2022).

Target: T1, human MICA (on target cells: MICA over-expressing P815, MICA+ Nalm6, endogenous on A2058, K562, CaSki) (human, UniProt Q29983 24-383)
T1 sequence (looked up): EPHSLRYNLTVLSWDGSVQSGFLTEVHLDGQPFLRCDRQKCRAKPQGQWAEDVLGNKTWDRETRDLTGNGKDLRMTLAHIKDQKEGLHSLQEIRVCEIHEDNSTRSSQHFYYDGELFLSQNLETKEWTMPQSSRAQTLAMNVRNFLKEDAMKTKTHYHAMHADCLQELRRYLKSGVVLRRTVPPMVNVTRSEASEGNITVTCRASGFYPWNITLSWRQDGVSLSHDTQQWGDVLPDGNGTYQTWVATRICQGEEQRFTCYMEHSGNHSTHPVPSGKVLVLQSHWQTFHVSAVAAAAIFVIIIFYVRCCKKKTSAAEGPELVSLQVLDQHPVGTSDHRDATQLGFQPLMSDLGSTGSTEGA
Test: cell-based or functional assay

B1: MICA/B CAR (anti-MICA/B chimeric antigen receptor; version not stated for the experiment) (other)
VH: QIQLVQSGPELKKPGETVKVSCKASGYMFTNYAMNWVKQAPEKGLKWMGWINTHTGDPTYADDFKGRIAFSLETSASTAYLQINNLKNEDTATYFCVRTYGNYAMDYWGQGTSVTVSS
VL: DIQMTQTTSSLSASLGDRVTISCSASQDISNYLNWYQQKPDGTVKLLIYDTSILHLGVPSRFSGSGSGTDYSLTISNLEPEDIATYYCQQYSKFPRTFGGGTTLEIK
For B1, which “EC50 of cytotoxicity (% Caspase 3/7+ target cells) of MICA/B CAR+ T cells on MICA+ Nalm6 cells over E:T ratios, 4 hours” value is on record?
The value was ~1.9 E:T ratio.

What about the “EC50 of cytotoxicity (% Caspase 3/7+ target cells) of MICA/B CAR+ iNK cells on P815 MICA+ cells over E:T ratios, 4 hours” value of the same binder?
Its value is ~5.2 E:T ratio.
